According to paper PMC11352552:

B1: biotinylated L-selectin (natural protein)
chain: WTYHYSEKPMNWQRARRFCRDNYTDLVAIQNKAEIEYLEKTLPFSRSYYWIGIRKIGGIWTWVGTNKSLTEEAENWGDGEPNNKKNKEDCVEIYIKRNKDAGKWNDDACHKLKAALCYTASCQPWSCSGHGECVEIINNYTCNCDVGYYGPQCQFVIQCEPLEAPELGTMDCTHPLGNFSFSSQCAFSCSEGTNLTGIEETTCGPFGNWSSPEPTCQVIQCEPLSAPDLGIMNCSHPLASFSFTSACTFICSEGTELIGKKKTICESSGIWSNPSPICQKLDKSFSMIKEGDYN
modifications: biotinylated

Molecular target: T1, recombinant human PSGL-1 Fc fusion protein (human)
T1 sequence (Q14242 whole entry, looked up): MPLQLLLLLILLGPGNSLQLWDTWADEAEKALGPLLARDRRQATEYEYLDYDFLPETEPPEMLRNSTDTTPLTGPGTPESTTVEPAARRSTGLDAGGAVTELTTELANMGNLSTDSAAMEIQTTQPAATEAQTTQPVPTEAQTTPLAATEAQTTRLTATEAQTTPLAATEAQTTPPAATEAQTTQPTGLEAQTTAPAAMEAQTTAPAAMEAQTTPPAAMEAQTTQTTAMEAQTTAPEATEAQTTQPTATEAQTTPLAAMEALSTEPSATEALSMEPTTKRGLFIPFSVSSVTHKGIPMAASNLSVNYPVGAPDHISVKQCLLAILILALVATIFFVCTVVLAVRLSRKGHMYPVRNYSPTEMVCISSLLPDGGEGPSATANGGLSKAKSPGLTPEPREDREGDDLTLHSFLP
Assay: ELISA; EC50 of biotinylated P- and L-selectin binding to PSGL-1; the titration itself is not described, the values are given in the competition protocol

| Molecule | EC50 |
| --- | --- |
| biotinylated P-selectin (from UniProt P16109 42-771) (natural protein) | 1 nM |
| B1 | 40 nM |
